Tests used:
[1] = target: T1, AdipoR1 (Mus musculus, UniProt Q91VH1); assay: Electrophysiological recording in Xenopus oocytes expressing AdipoR1; format: cell-based
T1 construct: expressed in transfected cells; host or cells: Xenopus oocytes (stage V to VII), cRNA synthesized from linearized modified pSPUTK
T1 sequence (Q91VH1 1-375): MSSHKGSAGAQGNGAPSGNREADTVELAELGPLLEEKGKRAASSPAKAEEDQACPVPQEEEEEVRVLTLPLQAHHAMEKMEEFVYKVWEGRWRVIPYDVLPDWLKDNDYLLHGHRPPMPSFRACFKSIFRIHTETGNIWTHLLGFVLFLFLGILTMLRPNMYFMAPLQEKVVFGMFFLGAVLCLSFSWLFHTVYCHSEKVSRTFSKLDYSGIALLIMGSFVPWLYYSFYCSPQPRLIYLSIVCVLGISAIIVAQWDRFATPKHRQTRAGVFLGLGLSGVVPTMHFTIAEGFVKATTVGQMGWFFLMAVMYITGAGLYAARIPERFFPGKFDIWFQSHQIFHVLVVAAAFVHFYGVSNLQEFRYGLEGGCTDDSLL
Method: Stage V to VII oocytes were treated with 2 mg/ml of collagenase S-1 (Nitta gelatin) in calcium ion-free saline solution (82.5 mM NaCl, 2 mM KCl, 1 mM MgCl2, and 5 mM HEPES, pH 7.5) for 1 to 2 hr at room temperature. The resulting oocytes were then microinjected with 50 ng of cRNA for mAdipoR1. The cRNA was synthesized from linearized modified pSPUTK. The injected oocytes were incubated for 3 days at 18° C. in a bath solution (88 mM NaCl, 1 mM KCl, 0.3 mM Ca(NO3)2, 0.4 mM CaCl2, 0.8 mM MgSO4, 2.4 mM […], 15 mM HEPES, pH 7.6) supplemented with 10 μg/ml of penicillin and streptomycin.
Whole cell currents were recorded with a two-electrode voltage clamp technique. Intracellular glass electrodes were filled with 3M KCl. Signals were amplified with an OC-725C amplifier (Warner Instruments), low-pass filtered at 50 Hz, and digitized at 1 kHz. A control bath solution contained 115 mM NaCl, 2.5 mM KCl, 1.8 mM CaCl2, and 10 mM HEPES. It was titrated to pH 7.2 with NaOH. A calcium ion free solution containing 1.8 mM BaCl2 instead of CaCl2 was used. The inward current was monitored at a holding potential of −80 mV. Calcium ion activated Cl^− current was monitored by applying 500-mscc depolarizing pulses of +100 mV and +50 mV from the holding potential of −80 mV. Adiponectin was supplied to the superfusing bath solution via a silicon tube connected to computer-driven solenoid valves. Data acquisition and analysis were carried out using Digidata 1322A and pCLAMP software.

[2] = test system: C2C12 myocytes; assay: Mitochondrial content assay in C2C12 myocytes; format: cell-based, mouse
Method: (§1) The mouse C2C12 myoblasts were grown in 90% Dulbecco's modified high glucose Eagle's medium containing 10% (v/v) fetal bovine serum. When the cells reached 80% confluent, the myoblasts were induced to differentiate into myocytes by replacing the medium with a low serum differentiation medium (98% Dulbecco's modified high glucose Eagle's medium, 2.5% (v/v) horse serum). The medium was changed daily. The C2C12 cells were transfected by using Pofectamine 2000 (Invitrogen) and following the manufacturer's instructions.
Mitochondrial content assays were carried out as described in the following document (Cell Metab. 4, 75-87 (2006)), with slight modifications. Quantification of the mitochondrial content was conducted by using mtDNA and MitoTracker Green probe (Molecular Probes) according to the method as described in the following document (Obes. Res. 13, 574-581 (2005)). MitoTracker Green probe preferentially accumulates in mitochondria regardless of the mitochondrial membrane potential and provides an accurate assessment of mitochondrial mass. Cells were washed with PBS and after addition of 100 nM MitoTracker Green FM (Molecular Probes), incubated at 37° C. for 30 min. Cells were harvested by using trypsin/EDTA and resuspended in PBS. Fluorescence intensity was detected with excitation and emission wavelengths of 490 and 516 nm, respectively, and the values thus measured were corrected for total protein (mg/ml).

[3] = test system: PGC-1α (Ppargc1a); assay: PGC-1α (Ppargc1a) expression in C2C12 myocytes; format: cell-based, mouse; details: C2C12 myocytes, adiponectin 10 μg/ml 1.5 hours
Method: Real-time PCR was carried out according to the method described in the following documents (Nature Med. 13, 332-339 2007); Nature 423, 762-769 (2003); J. Biol. Chem. 281, 8748-8755 (2006)). Total RNA was prepared from cells or tissues by using Trizol (Invitrogen) according to the manufacturer's instructions. Quantification of mRNA was conducted using a real-time PCR method (Nature 423, 762-769 (2003)) with slight modifications. The procedures used for immunoblotting are described in the following documents (Nature Med. 7, 941-946 (2001); J. Biol. Chem. 281, 26602-26614 (2006); J. Biol. Chem. 281, 8748-8755 (2006)). The livers or muscles were freeze-clamped in liquid nitrogen in situ (Nature Med. 7, 941-946 (2001); J. Biol. Chem. 281, 26602-26614 (2006); J. Biol. Chem. 281, 8748-8755 (2006)).
as §1

[4] = test system: AMPK; assay: AMPK phosphorylation in C2C12 myocytes; format: cell-based, mouse; details: C2C12 myocytes, adiponectin 30 μg/ml
Method: as §1

[5] = test system: CaMKI; assay: CaMKI phosphorylation in skeletal muscle in vivo; design: species or system mice; details: 30 μg per 10 g body weight, 5 min
Excerpt: Mouse full-length adiponectin was generated as described in the following documents (Nature Med. 8, 1288-1295 (2002); Nature Med. 7, 941-946 (2001); Nature 423, 762-769 (2003)).

[6] = test system: soleus muscle; assay: Calcium imaging in skeletal muscle (soleus); format: cell-based, mice; details: adiponectin 30 μg/ml
Method: From 8-10 weeks-old mice, soleus muscles were dissected. Preparations were treated with 5 μM fura-2/AM in the presence of 0.1% Chremophore EL (Sigma) for 15 min. Fluorescence images were acquired using an inverted fluorescence microscopy (IX71, Olympus) equipped with a cooled charge-coupled device (CCD) camera (iXon, Andor) and a dry objective lens (10×, NA=0.3, Olympus) through a filter set consisting of a 327-353 nm and 369-391 nm excitation filter, a 409 nm dichroic mirror, and a 515-560 nm fluorescent filter. Ligands were supplied using the superfusing Ringer's solution (150 mM NaCl, 4 mM KCl, 2.0 mM CaCl2, 1.0 mM MgCl2, 30 mM D-glucose, 5 mM HEPES (pH 7.4)).

[7] = C2C12 myocytes, 30 μg/ml adiponectin

B1: adiponectin (protein, UniProt Q60994 1-247, looked up)
chain: MLLLQALLFLLILPSHAEDDVTTTEELAPALVPPPKGTCAGWMAGIPGHPGHNGTPGRDGRDGTPGEKGEKGDAGLLGPKGETGDVGMTGAEGPRGFPGTPGRKGEPGEAAYVYRSAFSVGLETRVTVPNVPIRFTKIFYNQQNHYDGSTGKFYCNIPGLYYFSYHITVYMKDVKVSLFKKDKAVLFTYDQYQEKNVDQASGSVLLHLEVGDQVWLQVYGDGDHNGLYADNVNDSTFTGFLLYHDTN
modifications: full-length
notes: adipokine, internal ligand of adiponectin receptor 1; recombinant murine full-length adiponectin
[1]; control oocytes without AdipoR1 cRNA
  calcium-ion activated Cl- current response: not observed
[1]; oocytes expressing AdipoR1, adiponectin 30 μg/ml, holding potential -80 mV
  inward current response: induced inward current responses
[1]; oocytes injected with AdipoR1 cRNA, adiponectin 30 μg/ml
  intracellular calcium levels by calcium-ion activated Cl- current: increase in intracellular calcium levels
[2]; C2C12 myocytes expressing PGC-1α-R13 mutant
  mitochondrial biogenesis: failed to further induce mitochondrial biogenesis
[2]; [7]
  amount of mitochondria as assessed by MitoTracker green: increased
  mitochondrial DNA content: increased a mitochondrial DNA content
[3]
  PGC-1α expression: increase in PGC-1α expression
[4]
  phosphorylation of AMPK α-subunits at Thr 172: increased the phosphorylation of the AMPK α-subunits at Thr 172
[5]
  phosphorylation of CaMKI in skeletal muscle in vivo: significantly increased
[6]; control mice
  intracellular calcium ion concentration in soleus muscle (fura-2): increased the intracellular calcium ion concentration
[6]; muscle-R1KO mice
  calcium responses of soleus muscle: almost completely disappeared

Source: patent publication US20130274185A1, “Pharmaceutical for Pseudo-Exercise Therapy” (THE UNIVERSITY OF TOKYO, priority 2010, published 2013)
